Results published in article PMC3534898.

Target: Presenilin 1 (mouse (endogenous in primary neurons of CD1 mice)), P49769
Test: FRET or BRET
Settings: remark: other sources report otherwise

B1: amyloid β precursor protein, P12023 18-770 (natural protein)
chain: LEVPTDGNAGLLAEPQIAMFCGKLNMHMNVQNGKWESDPSGTKTCIGTKEGILQYCQEVYPELQITNVVEANQPVTIQNWCKRGRKQCKTHTHIVIPYRCLVGEFVSDALLVPDKCKFLHQERMDVCETHLHWHTVAKETCSEKSTNLHDYGMLLPCGIDKFRGVEFVCCPLAEESDSVDSADAEEDDSDVWWGGADTDYADGGEDKVVEVAEEEEVADVEEEEADDDEDVEDGDEVEEEAEEPYEEATERTTSTATTTTTTTESVEEVVREVCSEQAETGPCRAMISRWYFDVTEGKCVPFFYGGCGGNRNNFDTEEYCMAVCGSVSTQSLLKTTSEPLPQDPDKLPTTAASTPDAVDKYLETPGDENEHAHFQKAKERLEAKHRERMSQVMREWEEAERQAKNLPKADKKAVIQHFQEKVESLEQEAANERQQLVETHMARVEAMLNDRRRLALENYITALQAVPPRPHHVFNMLKKYVRAEQKDRQHTLKHFEHVRMVDPKKAAQIRSQVMTHLRVIYERMNQSLSLLYNVPAVAEEIQDEVDELLQKEQNYSDDVLANMISEPRISYGNDALMPSLTETKTTVELLPVNGEFSLDDLQPWHPFGVDSVPANTENEVEPVDARPAADRGLTTRPGSGLTNIKTEEISEVKMDAEFGHDSGFEVRHQKLVFFAEDVGSNKGAIIGLMVGGVVIATVIVITLVMLKKKQYTSIHHGVVEVDAAVTPEERHLSKMQQNGYENPTYKFFEQMQN
- FRET efficiency (E FRET), vehicle treated cells: 7.07%
